Changes are numbered by the printed parent chain.
T1: human Nectin-4 expressed on HT-1376 tumor cells (human, UniProt Q96NY8 32-510)
T1 construct: whole, on cells; also called HT-1376 cells expressing human Nectin-4
T1 sequence (looked up): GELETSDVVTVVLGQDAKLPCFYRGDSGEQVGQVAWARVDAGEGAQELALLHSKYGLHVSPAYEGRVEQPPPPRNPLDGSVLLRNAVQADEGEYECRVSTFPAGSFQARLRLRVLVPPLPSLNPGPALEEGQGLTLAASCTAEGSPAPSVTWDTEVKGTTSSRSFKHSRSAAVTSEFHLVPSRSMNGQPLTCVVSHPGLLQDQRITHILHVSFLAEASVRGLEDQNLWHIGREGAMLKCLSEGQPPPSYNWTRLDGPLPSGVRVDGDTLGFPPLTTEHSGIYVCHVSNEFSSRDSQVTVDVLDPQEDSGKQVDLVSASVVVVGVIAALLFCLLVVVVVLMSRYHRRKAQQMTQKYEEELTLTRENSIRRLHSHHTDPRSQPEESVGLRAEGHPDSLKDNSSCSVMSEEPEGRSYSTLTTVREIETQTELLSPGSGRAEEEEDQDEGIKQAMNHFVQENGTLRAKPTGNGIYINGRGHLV

T2: cynomolgus monkey Nectin-4 expressed on CHO-K1 cells (cynomolgus monkey, UniProt Q96NY8 32-370 (human entry), limits assumed)
T2 construct: also called CHO-K1/cynoNectin4; cells expressing the cynomolgus monkey Nectin-4 protein
T2 chain: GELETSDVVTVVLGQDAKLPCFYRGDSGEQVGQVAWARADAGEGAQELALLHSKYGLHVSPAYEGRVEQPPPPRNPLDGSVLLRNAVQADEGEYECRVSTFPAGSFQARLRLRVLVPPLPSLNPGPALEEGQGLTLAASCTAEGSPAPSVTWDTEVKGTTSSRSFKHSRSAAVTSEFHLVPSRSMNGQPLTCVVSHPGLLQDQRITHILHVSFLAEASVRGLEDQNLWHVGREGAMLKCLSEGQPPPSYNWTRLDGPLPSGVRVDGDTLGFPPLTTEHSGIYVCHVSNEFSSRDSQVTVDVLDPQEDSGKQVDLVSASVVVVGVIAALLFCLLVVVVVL

T3: human Nectin-2 protein (Sino Biological, Cat. No. 10005-H08H) (human, UniProt Q92692 32-360)
T3 sequence (looked up): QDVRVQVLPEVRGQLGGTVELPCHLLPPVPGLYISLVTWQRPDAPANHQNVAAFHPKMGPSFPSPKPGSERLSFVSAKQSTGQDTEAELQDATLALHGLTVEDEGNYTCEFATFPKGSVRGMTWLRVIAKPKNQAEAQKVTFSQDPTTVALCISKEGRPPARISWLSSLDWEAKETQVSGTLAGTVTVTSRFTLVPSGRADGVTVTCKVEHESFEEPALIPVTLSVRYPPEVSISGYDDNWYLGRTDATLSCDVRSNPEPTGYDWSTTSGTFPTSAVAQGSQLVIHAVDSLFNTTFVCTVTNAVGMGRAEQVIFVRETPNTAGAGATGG

B1: Antibody 6-B9B6 (murine chimeric anti-Nectin-4 antibody) (antibody, human IgG1, kappa, V domains shown)
VH: EVHLVESGGGLVQPGGSLKLSCAASGFTFSSYGMSWVRQTPDKRLELVATINNIGGSTFPPDSVKGRFTVSRDNAKNTLYLQMSSLKSEDTAMYYCARAYDYVPFAYWGQGTLVTVSA
VL: DIQMTQSSSYLSVSLGGRVTITCKASDHINNWLAWYQQKPGNAPRLLISGATSLETGVPSRFSGSGSGKDYALSIASLQTEDVATYYCQQYWSTPFTFGSGTKLEIKR
notes: Mouse variable regions on human IgG1 / human kappa constant regions
B2: Antibody 23-H4F3 (murine chimeric anti-Nectin-4 antibody) (antibody, human IgG1, kappa, V domains shown)
VH: QVQLQQSGPELVKPGASVRISCKASGYTFTSYYIHWVKQRPGQGLEWIGWIYPGNVNTKYNEKFKGKATLTADKSSSTAYMQLISLTSEDSAVYFCARGVYYFDFWGQGTTLTVSS
VL: SIVMTQTPKFLLVSAGDRVTLTCKASQSVSNDVAWFQQKPGQSPKLLIYYALNRYTGVPDRFTGSGYGTDFTFTISTVQAEDLAVYFCQQDYSSPYTFGGGTKLEIKR
notes: Mouse variable regions on human IgG1 / human kappa constant regions, expressed in ExpiCHO-S cells; also called chimeric antibody 23-H4F3
B3: Antibody 32-A12C7 (murine chimeric anti-Nectin-4 antibody) (antibody, human IgG1, kappa, V domains shown)
VH: QVQLQQPGAELVMPGASVKMSCKASGYTFTDYWMHWVKQRPGQGLEWIGAIDTSDSYTSYNQKFKGKATLTVDESSSTAYMQLSSLTSEDSAVYYCARWGSTMITWGYGMDNWGQGTSVTVSS
VL: DIQMTQTTSSLSASLGDRVTISCRASQDINNYLNWYQQKPDGTVKLLIYYTSRLHSGVPSRFSGSGSGTDYSLTISNLEQEDIATYFCQQGNTLPWTFGGGTKLEIKR
notes: as for B1
B4: huH4F3-2 (antibody, human IgG1, kappa, V domains shown)
VH: QVQLVQSGAEVKKPGASVKVSCKASGYTFTSYYIHWVRQAPGQRLEWMGWIYPGNVNTKYSQKFQGRVTLTRDKSASTAYMELSSLRSEDTAVYYCARGVYYFDFWGQGTLVTVSS
VL: AIQMTQSPSSLSASVGDRVTITCRASQSVSNDVGWYQQKPGKAPKLLIYYALNRYTGVPSRFSGSGSGTDFTLTISSLQPEDFATYYCQQDYSSPYTFGQGTKLEIKR
notes: Humanized 23-H4F3, human IgG1/kappa
B5: huH4F3-4 (antibody, human IgG1, kappa, V domains shown)
VH: B4 VH
VL: DIVMTQSPDSLAVSLGERATINCKASQSVSNDVAWYQQKPGQPPKLLIYYALNRESGVPDRFSGSGSGTDFTLTISSLQAEDVAVYYCQQDYSSPYTFGQGTKLEIKR
notes: as for B4
B6: huH4F3-1 (antibody, human IgG1, kappa, V domains shown)
VH: B4 VH
VL: B4 VL with R54L, Y55Q, T56S
notes: as for B4
B7: huH4F3-5 (antibody, human IgG1, kappa, V domains shown)
VH: B4 VH
VL: B5 VL with A25S
notes: as for B4
B8: huH4F3-8 (antibody, human IgG1, kappa, V domains shown)
VH: B4 VH with Y95F
VL: B4 VL with Y36F, L73F
notes: as for B4
B9: huH4F3-10 (antibody, human IgG1, kappa, V domains shown)
VH: B4 VH with Y95F
VL: B5 VL with A25S
notes: as for B4
B10: huH4F3-3 (antibody, human IgG1, kappa, V domains shown)
VH: B4 VH
VL: B4 VL with Y36F, L73F
notes: as for B4
B11: huH4F3-6 (antibody, human IgG1, kappa, V domains shown)
VH: B4 VH with Y95F
VL: B4 VL with R54L, Y55Q, T56S
notes: as for B4
B12: huH4F3-9 (antibody, human IgG1, kappa, V domains shown)
VH: B4 VH with Y95F
VL: B5 VL
notes: as for B4
B13: huH4F3-7 (antibody, human IgG1, kappa, V domains shown)
VH: B4 VH with Y95F
VL: B4 VL
notes: as for B4
B14: Enfortumab (antibody, human IgG1, kappa, V domains shown)
VH: EVQLVESGGGLVQPGGSLRLSCAASGFTFSSYNMNWVRQAPGKGLEWVSYISSSSSTIYYADSVKGRFTISRDNAKNSLSLQMNSLRDEDTAVYYCARAYYYGMDVWGQGTTVTVSS
VL: DIQMTQSPSSVSASVGDRVTITCRASQGISGWLAWYQQKPGKAPKFLIYAASTLQSGVPSRFSGSGSGTDFTLTISSLQPEDFATYYCQQANSFPPTFGGGTKVEIKR
notes: used as control antibody (naked antibody, no drug); also called control antibody enfortumab

Molecular target: T1, human Nectin-4 expressed on HT-1376 …
Assay: flow cytometry on HT-1376 cells

Row | Binder | EC50 [nM] | binding result
1 | B1 | 0.249 | 
2 | B2 | 0.064 | 
3 | B3 | 0.3 | 
4 | B4 |  | binds
5 | B5 |  | binds
6 | B6 |  | binds
7 | B7 |  | binds
8 | B8 |  | binds
9 | B9 |  | binds
10 | B10 |  | binds
11 | B11 |  | binds
12 | B12 |  | binds
13 | B13 |  | binds
14 | B14 |  | binds

Molecular target: T2, cynomolgus monkey Nectin-4 expressed on …
Assay: flow cytometry on CHO-K1/cynoNectin4 cells

Row | Binder | EC50 [nM] | binding result
15 | B1 | 0.719 | 
16 | B2 | 0.411 | 
17 | B3 | 1.05 | 
18 | B4 |  | binds
19 | B5 |  | binds
20 | B6 |  | binds
21 | B7 |  | binds
22 | B8 |  | binds
23 | B9 |  | binds
24 | B10 |  | binds
25 | B11 |  | binds
26 | B12 |  | binds
27 | B13 |  | binds
28 | B14 |  | binds

Molecular target: T3, human Nectin-2 protein (Sino …)
Assay: ELISA, Nectin family protein immobilised on plate

Row | Binder | binding result
29 | B1 | no binding
30 | B2 | no binding

Molecular target: human Nectin-3 protein (Sino Biological, Cat. No. 10852-H08H) (human, UniProt Q9NQS3 58-404)
Sequence (Q9NQS3 58-404 limits assumed): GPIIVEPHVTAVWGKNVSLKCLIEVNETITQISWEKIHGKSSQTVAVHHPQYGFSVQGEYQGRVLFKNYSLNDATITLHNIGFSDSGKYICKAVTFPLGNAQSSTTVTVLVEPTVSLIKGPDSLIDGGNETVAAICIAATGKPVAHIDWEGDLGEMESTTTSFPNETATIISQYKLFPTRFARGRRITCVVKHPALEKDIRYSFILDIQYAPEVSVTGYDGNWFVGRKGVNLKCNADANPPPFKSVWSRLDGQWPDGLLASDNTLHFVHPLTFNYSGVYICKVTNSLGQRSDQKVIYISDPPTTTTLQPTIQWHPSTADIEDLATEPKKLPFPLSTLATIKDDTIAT
Assay: ELISA, Nectin family protein immobilised on plate

Row | Binder | binding result
31 | B1 | no binding
32 | B2 | no binding

— patent publication EP4671280A1 (Nanjing Leads Biolabs Co., Ltd., dated 2025)
